The values below come from the supplement of paper PMC10567573.

A short description of this series: protein stability index of a GFP-peptide fusion (GPS, HEK-293T) (PSI 1-6); higher = more stable. Conditions: c terminus: a fixed tail appended.

± gives the standard deviation.
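Also: 24-mer peptide tiles fused after GFP, lentivirally expressed, FACS-sorted into six equal bins by GFP/DsRed ratio, decoded by Illumina sequencing, PSI is the read-weighted mean bin number.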

For the sequence PTVTIEGFLQALSLAVDKQFEERK [TRIP13], the protein stability index was determined as 2.29 ± 0.61 (treatment: DMSO) and 2.13 ± 0.44 (treatment: MLN4924 1 uM, 8 h).
The matching figures for PVGSCCSSPAGLSREYKLVMLGAG [RIT1]: 2.54 ± 0.44 and 2.24 ± 0.35.
As for PVQPGMLIDVCKYLGSLQYRVWKK [TRIM35], the protein stability index runs as follows: (treatment: DMSO) 2 ± 0.2; (treatment: MLN4924 1 uM, 8 h) 2.17 ± 0.29.
The matching figures for PVRRIDGLTDVSQIITVTVQTGLD [IQUB]: 2.47 ± 0.45 and 2.45 ± 0.52.
Consider PVVSAVWGHCEIRMRYLNGLDPEP [SPSB1], for which the protein stability index by setting is: (treatment: DMSO) 2.14 ± 0.35; (treatment: MLN4924 1 uM, 8 h) 1.98 ± 0.33.
The matching figures for QAHELAYDPNYMSPFAQFACDNGL [PPTC7]: 3.32 ± 0.12 and 3.13 ± 0.41.
The matching figures for QALSGTPKKGPAPSLSPGSSCVKY [TSPAN10]: 4.16 ± 0.059 and 4.37 ± 0.22.
The matching figures for QAPKSKSGSRPRKPPPRKHTRSWA [LRRC59]: 4.05 ± 0.21 and 4.15 ± 0.29.
Take QAQIELRLLELMNQHDTEMKYYIV [DYRK1B]: the protein stability index runs as follows: (treatment: DMSO) 2.24 ± 0.23; (treatment: MLN4924 1 uM, 8 h) 2.49 ± 0.47.
The matching figures for QAVVLCSKKTFQITKQGDGVDFLS [USP39]: 2.57 ± 0.18 and 2.77 ± 0.38.
On to QCFFNGVFLGNKRSLSERTVDKCF [SPATS1], for which the protein stability index reads like this: (treatment: DMSO) 2.13 ± 0.25; (treatment: MLN4924 1 uM, 8 h) 2.34 ± 0.24.
The matching figures for QCIECGKSFNRHCNLIRHQKIHTV [ZSCAN9]: 3.37 ± 0.3 and 3.36 ± 0.38.
Turning to QDFNTMFTNCYIYNKPTDDIVLMA [BRD3], the protein stability index reads like this: (treatment: DMSO) 2.12 ± 0.28; (treatment: MLN4924 1 uM, 8 h) 2.23 ± 0.25.
For QDPQLHSPFSGSLHAPPAFYSTSS [VENTX], the protein stability index worked out at 3.65 ± 0.2 (treatment: DMSO) and 3.75 ± 0.28 (treatment: MLN4924 1 uM, 8 h).
For the sequence QDVTVVGSAGRLLAVGTDLYGQRN [GFOD1], the protein stability index by setting is: (treatment: DMSO) 3.4 ± 0.26; (treatment: MLN4924 1 uM, 8 h) 3.63 ± 0.32.
QELQIDDNEYAYLKAIIFFDPDAK [HNF4A]: the protein stability index by setting is: (treatment: DMSO) 2.53 ± 0.22; (treatment: MLN4924 1 uM, 8 h) 2.72 ± 0.21.
The matching figures for QFGIKDVFDNAIRAALISRRHLQF [RHOBTB1]: 2.62 ± 0.38 and 2.59 ± 0.46.
The matching figures for QFGLLSFFFAVLHAIYSLSYPMRR [STEAP1]: 3.28 ± 1 and 2.058 ± 0.016.
The sequence QFGQDGPISVHCSAGVGRTGVFIT [PTPRD] had a protein stability index (treatment: DMSO) of 2.46 ± 0.48 and a protein stability index (treatment: MLN4924 1 uM, 8 h) of 2.15 ± 0.22.
Regarding QFISRFLEGQSGVTIKHVACGDFF [NEK8], the protein stability index by setting is: (treatment: DMSO) 2.51 ± 0.47; (treatment: MLN4924 1 uM, 8 h) 2.39 ± 0.37.
The matching figures for QFLNDRLASYLEKVRQLERDNAEL [KRT33B]: 3.18 ± 0.18 and 3.33 ± 0.28.
In the case of QGGKDFNVPLSISRLTPGGKAAQA [PDLIM7], the protein stability index stood at 4.23 ± 0.26 (treatment: DMSO) and 4.35 ± 0.15 (treatment: MLN4924 1 uM, 8 h).
The matching figures for QGTTVPAHRAILVARCEVMAAMFN [RHOBTB3]: 2.1 ± 0.18 and 2.17 ± 0.097.
The matching figures for QKAGVTRSGRLILWEAPPLGAGGG [NEK8]: 3.31 ± 0.29 and 2.95 ± 0.32.
Regarding QLEKPKPVKPVTFSTGIKMGQHIS [MNAT1], the protein stability index reads like this: (treatment: DMSO) 3.36 ± 0.15; (treatment: MLN4924 1 uM, 8 h) 3.44 ± 0.41.
The matching figures for QLERPLPLTSVCYPQDLPRPLRSR [TRAF3IP2]: 4.05 ± 0.21 and 4.1 ± 0.24.
In turn, QLRNCLRILMGELSNHHDHHDEFC [BEX3] came in with a protein stability index (treatment: DMSO) of 2.28 ± 0.41 and a protein stability index (treatment: MLN4924 1 uM, 8 h) of 2.21 ± 0.12.
The matching figures for QQQIHHIKNLYAFNLFCQKRFDES [VPS39]: 2.29 ± 0.11 and 2.42 ± 0.15.
The matching figures for QRNGLVFIYDMCGSNYANFELDLG [PTPN9]: 2.84 ± 0.23 and 2.37 ± 0.57.
